Experimental data taken from patent publication US12281181.
Numbered stars: 1 amine (or outer) side, 2 acyl side, 3 side chain; on linkers, the order of the positions; unused ones are H or OH. Bridge positions count the residues as written; N and C are the ends. Square brackets hold non-standard residues; d marks the D form. Ends that are not written are not given here. Trimesoyl = O=C(c1cc(C(=O)[*:2])cc(C(=O)[*:3])c1)[*:1]; 2Nal = N[C@@H](Cc1ccc2ccccc2c1)C(=O)O; Dap = NC[C@H](N)C(=O)O; βAla = NCCC(=O)O

How the values were obtained:
[1] = target: T1, Recombinant GST-NEMO (NEMO(1-196)) (UniProt Q9Y6K9 1-196, biotinylated in the library screen); assay: HTRF competition IC50 against peptide 7
T1 construct: range 1-196; Expressed in E. coli BL21(DE3); also called NF-κB essential modulator; IKKγ; not shown: glutathione S-transferase (GST) tag encoded by the pGEX4T3 vector

[2] = target: T1, Recombinant GST-NEMO (NEMO(1-196)); assay: HTRF competition, GST-NEMO + biotin-IKKβKK/RR(701-745), peptide 0-100 µM
[3] = target: T1, Recombinant GST-NEMO (NEMO(1-196)); assay: fluorescence anisotropy (FA), direct binding
[4] = target: NEMO (endogenous, inside cultured cells) (UniProt Q9Y6K9 1-419); assay: cell-based or functional assay
[5] = target: T1, Recombinant GST-NEMO (NEMO(1-196)); assay: HTRF competition IC50, peptide 7 against peptide 6
[6] = target: T1, Recombinant GST-NEMO (NEMO(1-196)); assay: HTRF competition IC50, alanine scan against peptide 7
[7] = target: T1, Recombinant GST-NEMO (NEMO(1-196)); assay: HTRF competition, GST-NEMO + biotin-IKKβKK/RR(701-745)

T1 sequence (Q9Y6K9 1-196): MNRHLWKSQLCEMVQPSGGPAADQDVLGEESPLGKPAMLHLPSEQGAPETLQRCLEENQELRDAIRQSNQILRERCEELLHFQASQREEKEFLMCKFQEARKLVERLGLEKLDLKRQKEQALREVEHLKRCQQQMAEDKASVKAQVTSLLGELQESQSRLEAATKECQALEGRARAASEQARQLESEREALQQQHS
Chain of NEMO (endogenous, inside cultured cells) (Q9Y6K9 whole entry): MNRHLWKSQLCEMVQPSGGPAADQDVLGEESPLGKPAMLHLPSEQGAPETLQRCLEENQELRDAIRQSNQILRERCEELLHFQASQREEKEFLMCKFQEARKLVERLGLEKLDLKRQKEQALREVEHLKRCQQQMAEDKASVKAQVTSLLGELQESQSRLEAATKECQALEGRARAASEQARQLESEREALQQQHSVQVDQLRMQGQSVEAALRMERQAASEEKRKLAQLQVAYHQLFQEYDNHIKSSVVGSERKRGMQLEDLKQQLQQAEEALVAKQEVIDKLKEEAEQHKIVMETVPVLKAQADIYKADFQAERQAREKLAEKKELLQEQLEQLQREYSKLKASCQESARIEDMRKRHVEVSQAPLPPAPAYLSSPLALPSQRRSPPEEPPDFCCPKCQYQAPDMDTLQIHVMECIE

IC50 [2] [nM]	Binder	other results
16000	GAIAA[Dap]F[2Nal]R[dR]R[Dap][βAla][βAla]K (linker (positions not given here) via trimesic acid; not fully specified (bridges); printed as Tm(GAIAA)Δ(FΦRrRΔ)-BBK) [peptide 20]	fold lower NEMO-binding affinity against peptide 7 [1]: 16 fold
2200	AGWIY[Dap]F[2Nal]R[dR]R[Dap][βAla][βAla]K (linker (positions not given here) via trimesic acid; not fully specified (bridges); printed as Tm(AGWIY)Δ(FΦRrRΔ)-BBK) [peptide 9]	
1100	GWIYA[Dap]F[2Nal]A[dR]R[Dap][βAla][βAla]K (linker (positions not given here) via trimesic acid; not fully specified (bridges); printed as Tm(GWIYA)Δ(FΦArRΔ)-BBK) [peptide 17]	
1900	GWIYA[Dap]A[2Nal]R[dR]R[Dap][βAla][βAla]K (linker (positions not given here) via trimesic acid; not fully specified (bridges); printed as Tm(GWIYA)Δ(AΦRrRΔ)-BBK) [peptide 15]	
	GWIYA[Dap]F[2Nal]R[dR]R[Dap][βAla][βAla]K (linker (positions not given here) via trimesic acid; not fully specified (bridges); printed as Tm(GWIYA)Δ(FΦRrRΔ)-BBK; also: FITC label, site not given here) [fluorescently labeled peptide 7]	Kd [3]: 220 nM
2900	GWIY[dA][Dap]F[2Nal]R[dR]R[Dap][βAla][βAla]K (linker N-6-12 via Trimesoyl) [peptide 8]	
1200	AWIYA[Dap]F[2Nal]R[dR]R[Dap][βAla][βAla]K (linker (positions not given here) via trimesic acid; not fully specified (bridges); printed as Tm(AWIYA)Δ(FΦRrRΔ)-BBK) [peptide 11]	
1000	GWIYA[Dap]F[2Nal]R[dR]R[Dap][βAla][βAla]K (linker N-6-12 via Trimesoyl; not fully specified (N-terminus); printed as Tm(GWIYA)Δ(FΦRrRΔ)-BBK) [peptide 7]	inhibition of TNFα-induced NF-κB activation, luciferase in HEK293(Luc) cells, IC50 [4]: 10000 nM; fold increase in binding affinity against peptide 6 [5]: 5.9 fold
2800	GWIYA[Dap]FAR[dR]R[Dap][βAla][βAla]K (linker N-6-12 via Trimesoyl; not fully specified (N-terminus); printed as Tm(GWIYA)Δ(FARrRΔ)-BBK, Alanine-scan variant of peptide 7) [peptide 16]	
2100	GWIYA[Dap]F[2Nal]R[dA]R[Dap][βAla][βAla]K (linker (positions not given here) via trimesic acid; not fully specified (bridges); printed as Tm(GWIYA)Δ(FΦRaRΔ)-BBK) [peptide 18]	
5900	GWIY[Dap]F[2Nal]R[dR]R[Dap][βAla][βAla]K (linker (positions not given here) via trimesic acid; not fully specified (bridges); printed as Tm(GWIY)Δ(FΦRrRΔ)-BBK) [peptide 6]	
2800	GWIAA[Dap]F[2Nal]R[dR]R[Dap][βAla][βAla]K (linker (positions not given here) via trimesic acid; not fully specified (bridges); printed as Tm(GWIAA)Δ(FΦRrRΔ)-BBK) [peptide 14]	
1700	GWAYA[Dap]F[2Nal]R[dR]R[Dap][βAla][βAla]K (linker (positions not given here) via trimesic acid; not fully specified (bridges); printed as Tm(GWAYA)Δ(FΦRrRΔ)-BBK) [peptide 13]	fold decrease in potency against peptide 7 [6]: 2 to 3 fold
1500	GWIY[Dap]F[2Nal]RRRR[Dap][βAla][βAla]K (linker (positions not given here) via trimesic acid; not fully specified (bridges); printed as Tm(GWIY)Δ(FΦRRRRΔ)-BBK) [peptide 3]	
2300	[dA]GWIY[Dap]F[2Nal]R[dR]R[Dap][βAla][βAla]K (linker (positions not given here) via trimesic acid; not fully specified (bridges); printed as Tm(aGWIY)Δ(FΦRrRΔ)-BBK) [peptide 10]	
1200	GWIYA[Dap]F[2Nal]R[dR]A[Dap][βAla][βAla]K (linker (positions not given here) via trimesic acid; not fully specified (bridges); printed as Tm(GWIYA)Δ(FΦRrAΔ)-BBK) [peptide 19]	
	GAAAA[Dap]F[2Nal]R[dR]R[Dap][βAla][βAla]K (linker (positions not given here) via trimesic acid; not fully specified (bridges); printed as Tm(GAAAA)Δ(FΦRrRΔ)-BBK) [peptide 21]	fold lower NEMO-binding affinity against peptide 7 [1]: > 100 fold
1800	GWIY[Dap]F[2Nal]RRR[Dap]R[βAla]K (linker N-5-11 via Trimesoyl; not fully specified (N-terminus); printed as Tm(GWIY)Δ(FΦRRRA)-RBK, Bicyclic peptide; 4th arginine outside the B ring) [peptide 4]	
3000	GAIYA[Dap]F[2Nal]R[dR]R[Dap][βAla][βAla]K (linker (positions not given here) via trimesic acid; not fully specified (bridges); printed as Tm(GAIYA)Δ(FΦRrRΔ)-BBK) [peptide 12]	fold decrease in potency against peptide 7 [6]: 2 to 3 fold
1300	GWIY[Dap]F[2Nal]RRR[Dap][dR][βAla]K (linker N-5-11 via Trimesoyl; not fully specified (N-terminus); printed as Tm(GWIY)Δ(FΦRRRA)-rBK, Bicyclic peptide; D-arginine outside the B ring) [peptide 5]	
3400	GWIY[Dap]F[2Nal]RRR[Dap][βAla][βAla]K (linker (positions not given here) via trimesic acid; not fully specified (bridges); printed as Tm(GWIY)Δ(FΦRRRΔ)-BBK) [peptide 2]	IC50 [7]: 3400 to 28000 nM
